From article PMC9032424 (PLoS ONE, 2022)

T1: HisH (glutaminase subunit of Imidazole Glycerol Phosphate Synthase) from Thermotoga maritima (Thermotoga maritima, UniProt Q9X0C8 1-201)
T1 construct: HisH, Thermotoga maritima; cloned NdeI/XhoI into pET28a; No removal of the His-tag is described; source: bacteria transformed with pET28a, purified (70°C heat step, Ni-NTA agarose)
T1 sequence: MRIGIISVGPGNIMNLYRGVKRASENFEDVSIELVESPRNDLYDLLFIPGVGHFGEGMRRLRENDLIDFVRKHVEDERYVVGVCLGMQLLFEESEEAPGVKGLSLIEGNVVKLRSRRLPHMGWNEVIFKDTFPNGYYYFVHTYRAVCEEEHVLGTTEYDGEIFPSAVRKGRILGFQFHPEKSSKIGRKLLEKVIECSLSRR


Molecular target: T1, HisH (glutaminase subunit of Imidazole …)
Test: other fluorescence titration; intrinsic tryptophan fluorescence; 15 uM HisH mixed with sub-stoichiometric HisF (1 to 5 uM); 20 mM potassium phosphate pH 7.5; excitation 295 nm, difference spectra read at 321 nm; fluorescence as proxy of concentrations; 30°C
Conditions: both partners purified

| fold increase of Kd against wild-type HisF [fold] | Binder |
| --- | --- |
| 10 | HisF E167A (enzyme, Thermotoga maritima, HisF, Thermotoga maritima, with the single mutation E167A; parent is the HisF of m1; probably as the His-tagged wild-type HisF; also called mutant HisF) MLAKRIIACLDVKDGRVVKGTNFENLRDSGDPVELGKFYSEIGIDELVFLDITASVEKRKTMLELVEKVAEQIDIPFTVGGGIHDFETASELILRGADKVSINTAAVENPSLITQIAQTFGSQAVVVAIDAKRVDGEFMVFTYSGKKNTGILLRDWVVEVEKRGAGAILLTSIDRDGTKSGYDTEMIRFVRPLTTLPIIASGGAGKMEHFLEAFLAGADAALAASVFHFREIDVRELKEYLKKHGVNVRLEGL |
| ~3 | HisF F210A (enzyme, Thermotoga maritima, HisF, Thermotoga maritima, with the single mutation F210A; parent is the HisF of m1; probably as the His-tagged wild-type HisF; also called mutant HisF) MLAKRIIACLDVKDGRVVKGTNFENLRDSGDPVELGKFYSEIGIDELVFLDITASVEKRKTMLELVEKVAEQIDIPFTVGGGIHDFETASELILRGADKVSINTAAVENPSLITQIAQTFGSQAVVVAIDAKRVDGEFMVFTYSGKKNTGILLRDWVVEVEKRGAGEILLTSIDRDGTKSGYDTEMIRFVRPLTTLPIIASGGAGKMEHALEAFLAGADAALAASVFHFREIDVRELKEYLKKHGVNVRLEGL |
| ~3 | HisF L169A (enzyme, Thermotoga maritima, HisF, Thermotoga maritima, with the single mutation L169A; parent is the HisF of m1; probably as the His-tagged wild-type HisF; also called mutant HisF) MLAKRIIACLDVKDGRVVKGTNFENLRDSGDPVELGKFYSEIGIDELVFLDITASVEKRKTMLELVEKVAEQIDIPFTVGGGIHDFETASELILRGADKVSINTAAVENPSLITQIAQTFGSQAVVVAIDAKRVDGEFMVFTYSGKKNTGILLRDWVVEVEKRGAGEIALTSIDRDGTKSGYDTEMIRFVRPLTTLPIIASGGAGKMEHFLEAFLAGADAALAASVFHFREIDVRELKEYLKKHGVNVRLEGL |
| ~3 | HisF K13A (enzyme, Thermotoga maritima, HisF, Thermotoga maritima, with the single mutation K13A; parent is the HisF of m1; probably as the His-tagged wild-type HisF; also called mutant HisF) MLAKRIIACLDVADGRVVKGTNFENLRDSGDPVELGKFYSEIGIDELVFLDITASVEKRKTMLELVEKVAEQIDIPFTVGGGIHDFETASELILRGADKVSINTAAVENPSLITQIAQTFGSQAVVVAIDAKRVDGEFMVFTYSGKKNTGILLRDWVVEVEKRGAGEILLTSIDRDGTKSGYDTEMIRFVRPLTTLPIIASGGAGKMEHFLEAFLAGADAALAASVFHFREIDVRELKEYLKKHGVNVRLEGL |
